Assay results: PMC5780496

Target: HACE1 (UniProt Q8IYU2)
Assay: co-IP of differently tagged HACE1
Details: reference: HACE1 WT with PAK1(K141A); sites S385

HACE1, sequence (Q8IYU2 whole entry, stated change not applied): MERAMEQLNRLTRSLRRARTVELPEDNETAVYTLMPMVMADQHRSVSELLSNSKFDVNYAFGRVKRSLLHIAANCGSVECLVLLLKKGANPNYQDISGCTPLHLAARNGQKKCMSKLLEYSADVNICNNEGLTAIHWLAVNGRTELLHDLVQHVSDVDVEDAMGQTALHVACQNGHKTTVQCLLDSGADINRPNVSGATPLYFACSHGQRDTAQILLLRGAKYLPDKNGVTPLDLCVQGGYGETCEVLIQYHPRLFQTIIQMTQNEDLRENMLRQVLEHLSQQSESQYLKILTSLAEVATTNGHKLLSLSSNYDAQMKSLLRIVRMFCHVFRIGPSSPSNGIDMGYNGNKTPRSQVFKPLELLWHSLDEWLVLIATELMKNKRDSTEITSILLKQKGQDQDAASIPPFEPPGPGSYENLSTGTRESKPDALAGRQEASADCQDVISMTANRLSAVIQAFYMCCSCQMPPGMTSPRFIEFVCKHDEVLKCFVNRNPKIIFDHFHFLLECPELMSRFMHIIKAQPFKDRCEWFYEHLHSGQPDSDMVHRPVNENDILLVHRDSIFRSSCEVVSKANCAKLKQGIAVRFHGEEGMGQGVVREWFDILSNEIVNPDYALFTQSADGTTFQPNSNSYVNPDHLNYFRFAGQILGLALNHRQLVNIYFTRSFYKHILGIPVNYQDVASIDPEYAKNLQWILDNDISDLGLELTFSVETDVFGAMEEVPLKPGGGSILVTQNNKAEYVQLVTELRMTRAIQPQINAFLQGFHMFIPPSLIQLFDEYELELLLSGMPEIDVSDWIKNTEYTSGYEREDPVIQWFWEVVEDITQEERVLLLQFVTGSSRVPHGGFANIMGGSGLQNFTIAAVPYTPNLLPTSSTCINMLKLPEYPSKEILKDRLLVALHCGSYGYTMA

**Q.** For “HACE1 (from UniProt Q8IYU2) HACE1 S385A with PAK1(K141A)”, which “binding against the reference” value is on record?
**A.** weaker
